Assay results from US20130261049A1, “ALPHABODIES SPECIFICALLY BINDING TO CLASS-I VIRAL FUSION PROTEINS AND METHODS FOR PRODUCING THE SAME” (priority 2011, published 2013).
Like-named read-outs stand apart in the source and are kept apart here.

Key:
[1] = system: HIV strain HXB2 in MT4-X4 cells; assay: microbe, parasite or virus in culture; settings: read-out: 50% inhibition concentration (IC50)
Description: The virus used in this assay was the laboratory adapted reference strain HXB2 virus using CXCR4 as co-receptor. Cells were infected with 100 TCID50/ml of virus in the presence of three-fold dilutions of Alphabody starting at 2.5 microM. […] MTT is reduced to formazan by living cells. Solubilization of the formazan crystals results in a colored product that can be measured by spectrophotometry at 540 nm. The cellular toxicity of the Alphabodies was monitored in the same assay using the same read-out, i.e. cell survival. As controls, the clinically approved T20 peptide (Fuzeon®, Roche) was used, as well as the CXCR4 antagonist, AMD3100 (Mozobile™, Genzyme).

HIV strain HXB2 in PBMC = assay: microbe, parasite or virus in culture; settings: read-out: 50% inhibition concentration (IC50)
Experimental: PBMC were infected with 4000 TCID50/ml of virus and added to serial dilutions of scAB_C2 starting at 2 microM. After 7 days, the amplification of the virus in absence and presence of scAB_C2 was monitored by measuring the viral p24 concentration. The maximal p24 concentration was measured when PBMC and virus were incubated without inhibitory molecules and was set at 100% viral amplification. As controls, the clinically approved T20 (Fuzeon®, Roche) was used, as well as the CXCR4 antagonist, AMD3100 (Mozobile™, Genzyme).

[2] = Aggregation tendency (visual inspection, OD 340 nm, SEC profiles, SDS-PAGE); type: physicochemical; settings: concentration ranges tested, typically up to 1 μM
Experimental: (§1) However, for these constructs, subcloning of synthetic genes was performed in the pET16b vector (Novagen), instead of in pET22b, in order to have an N-terminal 10-histidine tag.
as §1

[3] = target: HIV-1 gp41 HR2-derived biotinylated peptide C36 (HIV-1 HXB2); assay: ELISA, biotinylated peptide on streptavidin plates, sigmoid fit (apparent KD)
[4] = CD thermal denaturation scan in GuHCl; type: physicochemical; settings: CD at 222 nm, 11 microM protein in 5 M GuHCl
Experimental: This coding sequence was subcloned into the pET22b vector (Novagen). […] The resulting construct was transformed into the host E. coli strain BL21(DE3) harboring a chromosomal copy of the T7 polymerase gene under control of the lacUV5 promoter (DE3 lysogen). Transformed cells were grown in medium supplemented with ampicillin and protein expression was induced by the addition of IPTG to exponentially growing cultures. Cells containing the expressed Alphabodies were collected by centrifugation and the pellets were resuspended in 50 mM Tris, 500 mM NaCl, pH 7.8. Cells were then disrupted by sonication and spun down for cell debris removal. The cleared supernatants were applied onto a HITrap IMAC HP column (GE Healthcare) loaded with Ni^2+ ions. Bound proteins were eluted by applying an imidazole gradient from 5 to 1000 mM. Alphabody-containing fractions were pooled, concentrated and loaded on a Superdex 75 size exclusion chromatography (SEC) column (GE Healthcare). During this final purification step, the buffer was changed to 50 mM Tris, 150 mM NaCl, pH 7.8.

[5] = MT4-X4 cells, HXB2 virus, 5 day, cell survival by MTT
[6] = PBMC, HXB2 virus, 7 day, viral p24

## c1cc(CN2CCCNCCNCCCNCC2)ccc1CN1CCCNCCNCCCNCC1 [AMD3100]
[1]; Human immunodeficiency virus 1, HXB2, 120 h
  IC50: 54 nM
HIV strain HXB2 in PBMC; Human immunodeficiency virus 1, HXB2, PBMC, 168 h
  IC50: 97 nM

## enfuvirtide
[1]; [5]
  IC50: 6 nM
HIV strain HXB2 in PBMC; [6]
  IC50: 60 nM

B1: scAB_RsvC2: Alphabody with grafted HRSV HR2-like B-helix, SEQ ID No: 75 (protein)
chain: MSIEEIQKQIAAIQKQIAAIQKQIYRMTGGSGGSGGDVQIKIIQSQIYIIQSDILLIQAQISRMTGSGGGGSGMSIEEIQKQIAAIQKQIAAIQKQIYRMTP
modifications: Alphabody ′scAB_RsvC2′ sequence
[2]
  tendency to aggregate: None of the three Alphabodies showed tendency to aggregate

B2: scAB013_C2mut: monofunctional control of scAB_Bis with B-helix mutations only, SEQ ID No: 80 (protein)
chain: MGHHHHHHHHHHSSHIEGRHMSIEEIQKQIAAIQKQIAAIQKQIYRMTGGSGGSGGDMAMYAIQIAILIIQAQIQQIQNEIALMTLGSGGGGSGMSIEEIQKQIAAIQKQIAAIQKQIYRMTP
modifications: Alphabody helix sequence scAB013_C2mut
[2]
  tendency to aggregate: None of the three Alphabodies showed tendency to aggregate

B3: scAB_Env03mut: monofunctional control of scAB_Bis with A- and C-helix mutations only, SEQ ID No: 79 (protein)
chain: MGHHHHHHHHHHSSHIEGRHGSAIQQIQKAIATIQKAIAWIQKKIYMITGGSGGSGGGSIEEIQKQIAAIQKQIAAIQKQIYAITGSGGGGSGGDIQQIQKQIVAIMKQIVAIVKQISAITP
modifications: Alphabody helix sequence scAB_Env03mut
[2]
  tendency to aggregate: None of the three Alphabodies showed tendency to aggregate

B4: scAB_RsvN1: Alphabody with grafted HRSV N-trimer-like binding groove, SEQ ID No: 71 (protein)
chain: SAEIQKIQSAIASTQQAIASLQNAIYVFTGGSGGSGGMSIEEIQKQIAAIQKQIAAIQKQIYRMTGSGGGGSGMSINEIKKQLLAINKQVVAIAQQVSAMSPSR
modifications: Alphabody ′scAB_RsvN1′ sequence
[2]
  tendency to aggregate: None of the three Alphabodies showed tendency to aggregate

B5: scAB_RsvN2: Alphabody with grafted HRSV N-trimer-like binding groove, SEQ ID No: 72 (protein)
chain: SAAIESTQQAIASIQNAIAVIQQKIYDLTGGSGGSGGMSIEEIQKQIAAIQKQIAAIQKQIYRMTGSGGGGSGMSLLEINKQVVAISQQISAITKQILRMKNTP
modifications: Alphabody ′scAB_RsvN2′ sequence
[2]
  tendency to aggregate: None of the three Alphabodies showed tendency to aggregate

B6: Alphabody scAB013_C2 with C-terminal Leu-Glu-(His)6 tag (designed binder)
chain: MSIEEIQKQIAAIQKQIAAIQKQIYRMTGGSSGGSMQMYTIQIQILIIQAQIQQIQNQIELMTLGGSSGGMSIEEIQKQIAAIQKQIAAIQKQIYRMTPLEHHHHHH
[3]
  Kd: > 10000 nM

B7: scAB_Bis: optimized bispecific single-chain Alphabody binding gp41 HR2 and N-trimer, SEQ ID No: 78 (protein)
chain: MGHHHHHHHHHHSSHIEGRHGSAIQQIQKAIATIQKAIAWIQKKIYMITGGSGGSGGDMAMYAIQIAILIIQAQIQQIQNEIALMTLGSGGGGSGGDIQQIQKQIVAIMKQIVAIVKQISAITP
modifications: Alphabody helix sequence scAB_Bis
[2]
  tendency to aggregate: None of the three Alphabodies showed tendency to aggregate

B8: scAB013_C2: gp41 HR2-mimicking Alphabody, SEQ ID No: 69, expressed with C-terminal (His)6 tag (protein)
chain: MSIEEIQKQIAAIQKQIAAIQKQIYRMTGGSSGGSMQMYTIQIQILIIQAQIQQIQNQIELMTLGGSSGGMSIEEIQKQIAAIQKQIAAIQKQIYRMTP
modifications: C-terminal His6 tag; Alphabody ′scAB013_C2′ sequence
[4]
  transition temperature Tm: 72 °C
[1]; [5]
  IC50: 62 nM
HIV strain HXB2 in PBMC; [6]
  IC50: 218 nM
